One substance from publication PMC10094494 can be followed below.

This experiment has as its target D-psicose 3-epimerase from Iocasia fonsfrigidae strain SP3-1 (Iocasia fonsfrigidae strain SP3-1). Description: native gel or EMSA; native-PAGE of the purified recombinant enzyme, run like SDS-PAGE but without SDS, beta-mercaptoethanol and heat. For orientation: Mobility shift assays separate free from complexed probe on a gel.

A word on the stoichiometry N: it is a count of units in the complex or per binding partner.

For the substance “D-psicose 3-epimerase from Iocasia fonsfrigidae strain SP3-1 (enzyme)”, the stoichiometry N came out at 2.
